Values of other authors in paper PMC3903589.
pKd: −log10 of the molar value.

How the values were obtained:
CEACAM1 = CEACAM1 (UniProt P13688); experiment: SPR
NCAM = NCAM (UniProt P13591); experiment: SPR

Chain of NCAM (P13591 20-718): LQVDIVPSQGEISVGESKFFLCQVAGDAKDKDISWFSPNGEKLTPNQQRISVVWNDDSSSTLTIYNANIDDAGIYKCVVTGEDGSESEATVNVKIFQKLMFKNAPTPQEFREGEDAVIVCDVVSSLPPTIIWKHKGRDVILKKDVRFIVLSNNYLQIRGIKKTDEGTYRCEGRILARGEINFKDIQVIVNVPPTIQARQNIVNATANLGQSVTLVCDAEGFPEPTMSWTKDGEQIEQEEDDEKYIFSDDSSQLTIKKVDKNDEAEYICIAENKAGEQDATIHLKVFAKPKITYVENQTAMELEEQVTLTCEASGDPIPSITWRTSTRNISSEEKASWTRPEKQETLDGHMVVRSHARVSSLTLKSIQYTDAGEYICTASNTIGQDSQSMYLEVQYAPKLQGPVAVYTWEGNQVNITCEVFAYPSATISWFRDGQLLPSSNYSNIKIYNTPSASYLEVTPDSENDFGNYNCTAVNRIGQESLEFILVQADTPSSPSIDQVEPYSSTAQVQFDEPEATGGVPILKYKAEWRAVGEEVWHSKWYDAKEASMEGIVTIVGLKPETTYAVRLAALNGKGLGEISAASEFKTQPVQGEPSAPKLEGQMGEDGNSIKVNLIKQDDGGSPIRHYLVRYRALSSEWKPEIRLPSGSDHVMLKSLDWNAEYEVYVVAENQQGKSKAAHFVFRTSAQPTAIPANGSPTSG
Chain of CEACAM1 (P13688 35-428): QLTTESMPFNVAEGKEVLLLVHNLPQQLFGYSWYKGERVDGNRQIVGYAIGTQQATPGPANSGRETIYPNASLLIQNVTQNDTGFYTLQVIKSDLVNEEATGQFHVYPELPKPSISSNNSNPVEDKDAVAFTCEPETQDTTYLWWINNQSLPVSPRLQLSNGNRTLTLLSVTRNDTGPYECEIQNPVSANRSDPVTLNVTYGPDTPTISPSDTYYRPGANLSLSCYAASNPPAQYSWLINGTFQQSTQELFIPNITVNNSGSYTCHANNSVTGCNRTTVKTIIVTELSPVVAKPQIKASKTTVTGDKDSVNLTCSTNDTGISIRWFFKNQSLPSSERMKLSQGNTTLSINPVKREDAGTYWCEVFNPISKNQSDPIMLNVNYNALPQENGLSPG

pKd (CEACAM1) | pKd (NCAM) | Substance
5.12 | – | CEACAM1 (from UniProt P13688)
– | 7.60 | NCAM (from UniProt P13591)
